Assay results taken from patent publication US20260193366A1 (APOGEE THERAPEUTICS, published 2026).

Legend:
hIL-4Rα on cells [1] = target: T1, hIL-4Rα on cells (human, UniProt P24394 26-825); test: FACS on HEK293 cells, competitor biotin-hIL-13;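 also: stably transduced cells co-expressing both receptor chains, stained cold, with cell-bound signal read as mean fluorescence intensity by flow cytometry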
T1 sequence: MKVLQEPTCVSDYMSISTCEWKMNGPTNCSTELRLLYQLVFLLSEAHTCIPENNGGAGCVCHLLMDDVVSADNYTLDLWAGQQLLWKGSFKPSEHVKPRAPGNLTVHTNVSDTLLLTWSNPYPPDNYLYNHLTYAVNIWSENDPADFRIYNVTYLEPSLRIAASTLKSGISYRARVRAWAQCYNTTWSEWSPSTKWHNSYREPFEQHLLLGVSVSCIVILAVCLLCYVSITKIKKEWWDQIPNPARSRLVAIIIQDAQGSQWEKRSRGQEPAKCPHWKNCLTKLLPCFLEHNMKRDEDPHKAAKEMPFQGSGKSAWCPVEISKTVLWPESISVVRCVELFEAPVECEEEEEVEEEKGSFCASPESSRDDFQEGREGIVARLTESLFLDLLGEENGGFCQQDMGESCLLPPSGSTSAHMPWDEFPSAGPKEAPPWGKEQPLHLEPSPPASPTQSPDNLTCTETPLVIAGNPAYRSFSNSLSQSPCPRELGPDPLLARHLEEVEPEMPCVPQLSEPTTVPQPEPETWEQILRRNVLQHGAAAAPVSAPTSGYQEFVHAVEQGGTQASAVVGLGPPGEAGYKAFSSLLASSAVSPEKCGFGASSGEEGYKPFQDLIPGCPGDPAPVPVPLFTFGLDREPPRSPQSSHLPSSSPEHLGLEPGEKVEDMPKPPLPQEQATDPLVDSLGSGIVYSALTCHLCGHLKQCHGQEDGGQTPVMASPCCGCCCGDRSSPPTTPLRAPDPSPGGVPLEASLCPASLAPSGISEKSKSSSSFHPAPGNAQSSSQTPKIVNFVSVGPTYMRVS
Method: (§1) Briefly, HEK293 previously transduced to stably express both hIL-13Rα and hIL-4Rα were cultured and harvested. Cells were seeded at 200,000 cells in 100 uL per well. Cells were washed and the supernatant discarded. […] The cells were stained in this mixture at 4° C. for 1 hour. […] Cells were incubated 4° C. for 1 hour, protected from light. Cells were then washed and the MFI of cells in each well were recorded by FACS using a BD FACSCanto II. Subsequent data were analyzed using GraphPad Prism.

hIL-4Rα on cells [2] = target: T1, hIL-4Rα on cells; test: cell-based or functional assay
hIL-4Rα on cells [3] = target: T1, hIL-4Rα on cells; test: cell-based or functional assay; remark: listed apart in the source
cynomolgus monkey IL-4Rα = target: T2, cynomolgus monkey IL-4Rα (cynomolgus monkey, UniProt P24394 26-231 (human entry), limits assumed); test: SPR, Carterra LSA;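 also: antibodies captured on an anti-human Fc sensor chip, antigen injected at several concentrations, association and dissociation rates fitted with a 1:1 Langmuir model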
T2 construct: also called Cyno IL-4Rα; cyIL-4Rα
T2 chain: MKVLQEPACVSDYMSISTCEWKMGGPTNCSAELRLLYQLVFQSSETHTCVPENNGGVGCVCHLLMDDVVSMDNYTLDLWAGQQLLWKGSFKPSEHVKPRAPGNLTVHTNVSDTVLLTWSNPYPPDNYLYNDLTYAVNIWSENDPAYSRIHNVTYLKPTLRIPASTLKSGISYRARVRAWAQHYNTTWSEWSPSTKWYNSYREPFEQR
Method: (§2) Binding affinity (KD) of antibodies to human and cynomolgus monkey IL-4Rα was determined through surface plasmon resonance (SPR) using a Carterra LSA. Briefly, an HC30M sensor chip that was previously functionalized with a polyclonal mixture of goat anti-human Fc antibody and used to capture purified antibodies at a level between 100-1000 RLU. […] Regeneration of the chip between different concentrations of antigen was performed with 200 mM phosphoric acid and antibody was captured again as previously described. Association and dissociation rate constants were subsequently determined through fitting to a 1:1 Langmuir binding model using the Kinetics Software from Carterra from which a KD value was derived.

human IL-4Rα = target: T3, human IL-4Rα (human, UniProt P24394 26-232); test: SPR, Carterra LSA;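 also: antibodies captured on an anti-human Fc sensor chip, antigen injected at several concentrations, association and dissociation rates fitted with a 1:1 Langmuir model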
T3 construct: also called Hu IL-4Rα; hIL-4Rα
T3 sequence: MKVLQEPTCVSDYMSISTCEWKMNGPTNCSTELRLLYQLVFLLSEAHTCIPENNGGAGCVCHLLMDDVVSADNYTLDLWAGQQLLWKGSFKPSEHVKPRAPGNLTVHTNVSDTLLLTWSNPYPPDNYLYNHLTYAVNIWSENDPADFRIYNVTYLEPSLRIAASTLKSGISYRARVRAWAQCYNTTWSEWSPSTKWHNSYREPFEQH
Method: as §2

hIL-4Rα on cells [4] = target: T1, hIL-4Rα on cells; test: FACS on HEK293 cells, competitor biotin-hIL-4;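 also: HEK293 cells stably co-expressing hIL-13Rα and hIL-4Rα, stained for 1 h at 4 °C, read-out as mean fluorescence intensity by flow cytometry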
Method: as §1

hIL-4Rα on cells [5] = target: T1, hIL-4Rα on cells; test: cell-based or functional assay; remark: listed apart in the source

Binder	Relative Blockade of IL-13 Binding IC50 (hIL-4Rα on cells [1])	Relative Inhibition of IL-4 induced TARC IC50 (hIL-4Rα on cells [2])	Relative Inhibition of IL-13 induced TARC IC50 (hIL-4Rα on cells [2])	Relative Inhibition of IL-4 induced pSTAT6 IC50 (hIL-4Rα on cells [3])	Relative Inhibition of IL-13 induced pSTAT6 IC50 (hIL-4Rα on cells [3])	KD Relative to Dupilumab (cynomolgus monkey IL-4Rα)	Kd (cynomolgus monkey IL-4Rα)	KD Relative to Dupilumab (human IL-4Rα)	Kd (human IL-4Rα)	Relative Blockade of IL-4 Binding IC50 (hIL-4Rα on cells [4])	Relative Inhibition of IL-4 induced TF-1 Proliferation IC50 (hIL-4Rα on cells [5])	Relative Inhibition of IL-13 induced TF-1 Proliferation IC50 (hIL-4Rα on cells [5])
Construct 40 (mAb476) (antibody, IgG4, V domains shown, VH/VL only) VH: EVQLVESGGGLEQPGGSLRLSCAGSGFTFRDFAMTWVRQAPGKGLEWVSSVSGDGGNTYYADSVKGRFTISRDNSKNTLYLQMNSLRAEDTAVYYCAKDRLSKTIRPRYYGLDVWGQGTTVTVSS VL: DIVMTQSPLSLPVTPGEPASISCRSSQSVLYSIGYNYVDWYLQKSGQSPQLLIYLGNKRASGVPDRFSGSGSGTDFTLKISRVEAEDVGFYYCMQAYQSPYVFGQGTKLEIK	1.19 relative to dupilumab	1.6 relative to dupilumab	4.7 relative to dupilumab	0.633 relative to dupilumab	1.89 relative to dupilumab	0.22	136 nM	1.11	0.0126 nM	1.16 relative to dupilumab	0.968 relative to dupilumab	1.01 relative to dupilumab
Construct 41 (mAb478) (antibody, IgG4, V domains shown, VH/VL only) VH: EVQLVESGGGLEQPGGSLRLSCAGSGFTFRDFAMTWVRQAPGKGLEWVSSISGGGGNTYYADSVKGRFTISRDNSKNTLYLQMNSLRAEDTAVYYCAKDRVSITIRPRYYGLDVWGQGTTVTVSS VL: DIVMTQSPLSLPVTPGEPASISCTASQSLLYSIGYNYVDWYLQKSGQSPQLLIYLGNKRASGVPDRFSGSGSGTDFTLKISRVEAEDVGFYYCMQAYNSPYTFGQGTKLEIK	1.15 relative to dupilumab	1.53 relative to dupilumab	1.35 relative to dupilumab	1.18 relative to dupilumab	1.97 relative to dupilumab	0.39	248 nM	0.86	0.00973 nM	1.09 relative to dupilumab	0.82 relative to dupilumab	1.15 relative to dupilumab
Construct 42 (mAb481) (antibody, IgG4, V domains shown, VH/VL only) VH: EVQLVESGGGLEQPGGSLRLSCAGSGFTFRTYAMTWVRQAPGKGLEWVSSISGDGSNTYYADSVKGRFTISRDNSKNTLYLQMNSLRAEDTAVYYCAKDRVSITIRPRYYGLDVWGQGTTVTVSS VL: DIVMTQSPLSLPVTPGEPASISCTASQSLLYSIGYNYVDWYLQKSGQSPQLLIYLGNKRASGVPDRFSGSGSGTDFTLKISRVEAEDVGFYYCMQALTTPYTFGQGTKLEIK	1.34 relative to dupilumab	2.02 relative to dupilumab	1.62 relative to dupilumab	0.81 relative to dupilumab	2.78 relative to dupilumab	0.25	158 nM	0.98	0.0111 nM	1.32 relative to dupilumab	1.19 relative to dupilumab	1.19 relative to dupilumab
Construct 43 (mAb482) (antibody, IgG4, V domains shown, VH/VL only) VH: EVQLVESGGGLEQPGGSLRLSCAGSGFTFRDFAMTWVRQAPGKGLEWVSSISGGGGNTYYADSVKGRFTISRDNSKNTLYLQMNSLRAEDTAVYYCAKDRLSIAVRPRYYGLDVWGQGTTVTVSS VL: DIVMTQSPLSLPVTPGEPASISCTSSQSLLYSIGYNYVDWYLQKSGQSPQLLIYLGSKRASGVPDRFSGSGSGTDFTLKISRVEAEDVGFYYCMQSLTSPYTFGQGTKLEIK	1.13 relative to dupilumab	1.56 relative to dupilumab	2.3 relative to dupilumab	0.633 relative to dupilumab	2.29 relative to dupilumab	0.24	150 nM	0.84	0.00943 nM	1.02 relative to dupilumab	1.13 relative to dupilumab	0.941 relative to dupilumab
Construct 44 (mAb485) (antibody, IgG4, V domains shown, VH/VL only) VH: EVQLVESGGGLEQPGGSLRLSCAGSGFTFRDFAMTWVRQAPGKGLEWVSSISGSGGNIYYADSVKGRFTISRDNSKNTLYLQMNSLRAEDTAVYYCAKDRLSKTIRPRYYGLDVWGQGTTVTVSS VL: DIVMTQSPLSLPVTPGEPASISCRSTQSLLYSIGKNYVDWYLQKSGQSPQLLIYEGNNRASGVPDRFSGSGSGTDFTLKISRVEAEDVGFYYCMQSLTSPYTFGQGTKLEIK	1.23 relative to dupilumab	2.53 relative to dupilumab	5.72 relative to dupilumab	1.18 relative to dupilumab	3.76 relative to dupilumab	2.03	1280 nM	1.11	0.0125 nM	1.21 relative to dupilumab	1.15 relative to dupilumab	1.29 relative to dupilumab
Construct 45 (mAb494) (antibody, IgG4, V domains shown, VH/VL only) VH: EVQLVESGGGLEQPGGSLRLSCAGSGFTFRDFAMTWVRQAPGKGLEWVSSISGSGDGTYYADSVKGRFTISRDNSKNTLYLQMNSLRAEDTAVYYCAKDRVSITIRPRYYGLDVWGQGTTVTVSS VL: DIVMTQSPLSLPVTPGEPASISCTASQSLLYSIGYNYVDWYLQKSGQSPQLLIYLGNNRATGVPDRFSGSGSGTDFTLKISRVEAEDVGFYYCMQSLQTPYTFGQGTKLEIK	1.01 relative to dupilumab	3.09 relative to dupilumab	14.5 relative to dupilumab	1.25 relative to dupilumab	4.61 relative to dupilumab	0.31	192 nM	0.96	0.0109 nM	1.08 relative to dupilumab	1.68 relative to dupilumab	1.79 relative to dupilumab
Construct 46 (mAb501) (antibody, IgG4, V domains shown, VH/VL only) VH: EVQLVESGGGLEQPGGSLRLSCAGSGFTFRDSAMTWVRQAPGKGLEWVSSISGSGDGTYYADSVKGRFTISRDNSKNTLYLQMNSLRAEDTAVYYCAKDRLSIYIRPRYYGLDVWGQGTTVTVSS VL: DIVMTQSPLSLPVTPGEPASISCTSSQSLLYSIGYNYVDWYLQKSGQSPQLLIYLGNKRASGVPDRFSGSGSGTDFTLKISRVEAEDVGFYYCMQALQTPYTFGQGTKLEIK	1.02 relative to dupilumab	2.49 relative to dupilumab	4.66 relative to dupilumab	1.04 relative to dupilumab	3.6 relative to dupilumab	0.36	228 nM	0.97	0.011 nM	1.22 relative to dupilumab	1.29 relative to dupilumab	1.28 relative to dupilumab
Construct 30 (mAb439) (antibody, IgG4, V domains shown, VH/VL only) VH: EVQLVESGGGLEQPGGSLRLSCAGSGFTFRDYAMTWVRQAPGKGLEWVSSISGSGGNTYYADSVKGRFTISRDNSKNTLYLQMNSLRAEDTAVYYCAKDRLSITIRPRYYGLDVWGQGTTVTVSS VL: DIVMTQSPLSLPVTPGEPASISCRSSQSLLYSNRNNYLDWYLQKSGQSPQLLIYSASIRASGVPDRFSGSGSGTDFTLKISRVEAEDVGFYYCMQAFQAPYTFGQGTKLEIK	0.958 relative to dupilumab	0.68 relative to dupilumab	0.592 relative to dupilumab	1.09 relative to dupilumab	0.781 relative to dupilumab	0.2	128 nM	0.98	0.011 nM	0.863 relative to dupilumab	0.387 relative to dupilumab	0.917 relative to dupilumab
